Among the data in article PMC314469, “Protein Interaction Networks by Proteome Peptide Scanning” (PLoS Biology, 2004) are normalised SPOT signal, Boehringer light units (BLU); mean over the file's lines of this peptide values, retold here.

Sequences and labels used below:
T1: Abp1 SH3 (ABP1_YEAST), P15891
T1 chain: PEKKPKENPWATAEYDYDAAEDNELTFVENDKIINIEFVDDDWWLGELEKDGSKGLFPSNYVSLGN

B1: YOR217W 594-606 (peptide)
chain: ENYLSTRPSVLKP
B2: YKR027W 750-762 (peptide)
chain: ERPLPDLPSTIKP
B3: YGR267C 9-21 (peptide)
chain: EIERHETPLNIRP
B4: YLR081W 51-64 (peptide)
chain: EGSQSVPIEIPKKP
B5: YDR062W 281-293 (peptide)
chain: EQIVLGQPKTNRP
B6: YIL103W 218-230 (peptide)
chain: EHMLYIIPPQIKP
B7: YER085C 144-156 (peptide)
chain: ENEFQVIPIRFKP
B8: YCL051W 196-209 (peptide)
chain: EQKLPTALLSPLRP
B9: YKL204W 262-274 (peptide)
chain: ESASHETPTDLRP
B10: YIL063C 22-35 (peptide)
chain: ENPIDKLDGTPKRP
B11: YDR448W 139-152 (peptide)
chain: ESFRERPLEPPRKP
B12: YMR086W 699-712 (peptide)
chain: EPASVYESNGPNKP
B13: YCL008C 154-167 (peptide)
chain: EPPQDQAPSLPPKP
B14: YLR285W 193-206 (peptide)
chain: EKGQALVVFSPHRP
B15: YDL203C 183-196 (peptide)
chain: EKVYRTEEKAPIRP
B16: YBR284W 656-669 (peptide)
chain: EQAPTGLVLEPSKP
B17: YPR184W 920-932 (peptide)
chain: EGGAYIIPNFGKP
B18: YGR097W 219-231 (peptide)
chain: ESKMSLAPHEYKP
B19: YLL040C 1996-2009 (peptide)
chain: EIELLVDSKDPNKP
B20: YCL027W 384-396 (peptide)
chain: EKHELIIPTPSKP
B21: YCR088W 207-220 (peptide)
chain: ELKERDFDQAPLKP
B22: YFL025C 369-381 (peptide)
chain: ESIDASKPEKVKP
B23: YGR099W 548-560 (peptide)
chain: ELRGLDDPTIVKP
B24: YJL010C 631-643 (peptide)
chain: EIFPNSKPLQPKP
B25: YCL061C 306-319 (peptide)
chain: EKARNVEYKKPQKP
B26: YOR347C 67-80 (peptide)
chain: ENAVKSEQQFPGRP
B27: YIL031W 818-830 (peptide)
chain: EQEEFTSPYFGRP
B28: YGR134W 1043-1056 (peptide)
chain: ELNLKLLNLFPSKP
B29: YNL274C 336-348 (peptide)
chain: ELQNEDWPNESKP
B30: YOR116C 588-600 (peptide)
chain: EHFDIPPPAIMKP
B31: YJL193W 97-110 (peptide)
chain: ESKLSSLIIPPSKP
B32: YGL173C 598-610 (peptide)
chain: ERSKNLIPPAFRP
B33: YPR016W-A 66-78 (peptide)
chain: EKTGNAHPLGFRP
B34: YOR208W 421-433 (peptide)
chain: EHSRVKLPHSPKP
B35: YIR007W 413-425 (peptide)
chain: ELFIIIQPPVMKP
B36: YBL101C 762-774 (peptide)
chain: EHAVANGPSHRRP
B37: YKL144C 179-191 (peptide)
chain: EGKNEETPQNEKP
B38: YJL196C 11-23 (peptide)
chain: EKASRFRPTIDRP
B39: YGR268C 21-33 (peptide)
chain: ERLQSQPPRPPRP
B40: YDR348C 88-101 (peptide)
chain: ESFSSGSLSPPSRP
B41: YHL022C 194-207 (peptide)
chain: EPKMQKQTIFPGKP
B42: YKL010C 660-672 (peptide)
chain: EFTDMEIPDSVKP
B43: YGL061C 171-184 (peptide)
chain: ENRKGEKDAAPAKP
B44: YER161C 148-160 (peptide)
chain: EPVTKERPHFNKP
B45: YJR122W 411-423 (peptide)
chain: ENEPTLNPFTNKP
B46: YHR190W 379-391 (peptide)
chain: EMYQDKLPPNVKP
B47: YNR051C 181-193 (peptide)
chain: EKEKEKSPEISKP
B48: YNL086W 59-71 (peptide)
chain: EGQVLYDPEPFKP
B49: YKL032C 351-364 (peptide)
chain: ERRKQLKKQGPKRP
B50: YPL027W 171-184 (peptide)
chain: ERLERQFEEVPFRP
B51: YIR007W 368-380 (peptide)
chain: EIQNGKRPVLLKP
B52: YMR027W 61-74 (peptide)
chain: EFRQEIIDRVPLRP
B53: YKL155C 149-161 (peptide)
chain: ELQKRVGPDNFKP
B54: YHL038C 520-532 (peptide)
chain: EKFRVNRPIQLRP

The assay deals with T1, Abp1 SH3 (ABP1_YEAST), P15891. Nature of the assay: SPOT array.
As to B1, the normalised SPOT signal, Boehringer light units (BLU); mean over the file's lines of this peptide worked out at 84.9.
The figure for B2 is 106.
The figure for B3 is 0; for B4 it is 132; for B5 it is 87.7.
For the molecule B6, the normalised SPOT signal, Boehringer light units (BLU); mean over the file's lines of this peptide is 96.5.
For the molecule B7, the normalised SPOT signal, Boehringer light units (BLU); mean over the file's lines of this peptide worked out at 127.
The figure for B8 is 126; for B9 it is 147; for B10 it is 21.5.
As to B11, the normalised SPOT signal, Boehringer light units (BLU); mean over the file's lines of this peptide is 675.
The figure for B12 is 18.6; for B13 it is 156; for B14 it is 182.
The figure for B15 is 38.6; for B16 it is 51.6.
The figure for B17 is 4.8; for B18 it is 97.4.
For the molecule B19, the normalised SPOT signal, Boehringer light units (BLU); mean over the file's lines of this peptide is 126.
In turn, B20 had a normalised SPOT signal, Boehringer light units (BLU); mean over the file's lines of this peptide of 140.
On to B21, for which the normalised SPOT signal, Boehringer light units (BLU); mean over the file's lines of this peptide was found to be 89.2.
B22 showed a normalised SPOT signal, Boehringer light units (BLU); mean over the file's lines of this peptide of 132.
The figure for B23 is 152; for B24 it is 13.6; for B25 it is 80.9.
Molecule B26 had a normalised SPOT signal, Boehringer light units (BLU); mean over the file's lines of this peptide of 80.3.
The figure for B27 is 67.4.
The figure for B28 is 164; for B29 it is 24; for B30 it is 106.
The figure for B31 is 105; for B32 it is 488.
Consider B33, for which the normalised SPOT signal, Boehringer light units (BLU); mean over the file's lines of this peptide was 124.
The figure for B34 is 395; for B35 it is 98.8; for B36 it is 97.9.
The figure for B37 is 126; for B38 it is 910.
In turn, B39 showed a normalised SPOT signal, Boehringer light units (BLU); mean over the file's lines of this peptide of 10400.
In turn, B40 gave a normalised SPOT signal, Boehringer light units (BLU); mean over the file's lines of this peptide of 48.8.
The figure for B41 is 619; for B42 it is 72.6.
The molecule B43 returned a normalised SPOT signal, Boehringer light units (BLU); mean over the file's lines of this peptide of 87.1.
Regarding B44, the normalised SPOT signal, Boehringer light units (BLU); mean over the file's lines of this peptide worked out at 534.
For the molecule B45, the normalised SPOT signal, Boehringer light units (BLU); mean over the file's lines of this peptide stood at 138.
In turn, B46 registered a normalised SPOT signal, Boehringer light units (BLU); mean over the file's lines of this peptide of 143.
The figure for B47 is 67.3; for B48 it is 128.
B49 had a normalised SPOT signal, Boehringer light units (BLU); mean over the file's lines of this peptide of 77.9.
The figure for B50 is 201.
The figure for B51 is 248; for B52 it is 118.
In turn, B53 returned a normalised SPOT signal, Boehringer light units (BLU); mean over the file's lines of this peptide of 130.
The figure for B54 is 1490.
